Patent publication US20260242478A1 (published 2026)
Where no end group is shown, it is not given here.

B1: Phage-462 (peptide)
peptide: ECHWSMWAVGHACF
modifications: cysteine pairing not given here; also: displayed as fusion to phage pIII, linker and pIII sequence not given here
notes: Clonal phage supernatant; also called Peptide-83; not shown: fused to the pIII filament protein of the bacteriophage
B2: Phage-465 (peptide)
peptide: DCWWMFESYPGRCI
modifications: cysteine pairing not given here; also: displayed as fusion to phage pIII, linker and pIII sequence not given here
notes: Clonal phage supernatant; also called Peptide-86; not shown: fused to the pIII filament protein of the bacteriophage
B3: Phage-466 (peptide)
peptide: YCAGHAWQYINKCL
modifications: cysteine pairing not given here; also: displayed as fusion to phage pIII, linker and pIII sequence not given here
notes: Clonal phage supernatant; also called Peptide-87; not shown: fused to the pIII filament protein of the bacteriophage
B4: Phage-468 (peptide)
peptide: YWYCSPSIVRCVLV
notes: Clonal phage supernatant; also called Peptide-89; not shown: fused to the pIII filament protein of the bacteriophage
B5: Phage-472 (peptide)
peptide: DCPWLSGFSRPLLC
notes: Clonal phage supernatant; also called Peptide-93; not shown: fused to the pIII filament protein of the bacteriophage
B6: Phage-464 (peptide)
peptide: WCWDYKLWVPMTCP
modifications: cysteine pairing not given here; also: displayed as fusion to phage pIII, linker and pIII sequence not given here
notes: Clonal phage supernatant; also called Peptide-85; not shown: fused to the pIII filament protein of the bacteriophage
B7: Phage-463 (peptide)
peptide: YCAGHSPINIGKCL
modifications: cysteine pairing not given here; also: displayed as fusion to phage pIII, linker and pIII sequence not given here
notes: Clonal phage supernatant; also called Peptide-84; not shown: fused to the pIII filament protein of the bacteriophage
B8: Phage-461 (peptide)
peptide: WCWDYREWVPMTCP
modifications: cysteine pairing not given here; also: displayed as fusion to phage pIII, linker and pIII sequence not given here
notes: Clonal phage supernatant; also called Peptide-82; not shown: fused to the pIII filament protein of the bacteriophage
B9: Phage-467 (peptide)
peptide: WCWYYREWVPMTCP
modifications: cysteine pairing not given here; also: displayed as fusion to phage pIII, linker and pIII sequence not given here
notes: Clonal phage supernatant; also called Peptide-88; not shown: fused to the pIII filament protein of the bacteriophage
B10: Phage-470 (peptide)
peptide: WICDKSGSIMLCRA
notes: Clonal phage supernatant; also called Peptide-91; not shown: fused to the pIII filament protein of the bacteriophage

Molecular target: T1, Anti-CD28 Fab (SEQ ID NOs: 696, 697)
T1 construct: Biotinylated and captured on neutravidin coated plates in the phage ELISA
Test: phage binding ELISA on captured anti-CD28 Fab; competitor CD28 antigen
Method: (§1) Clonal phage were harvested as crude supematants and screened via standard ELISAs. […] Prior to the addition of clonal phage, wells were incubated with blocking buffer and CD28 antigen or blocking buffer alone. Without washing or aspirating, clonal phage supematants were then added to the wells and incubated for a short time. Wells were then washed followed by detection of bound phage using a horse radish conjugated anti-M13 antibody.

T1 sequence (VH, as listed by the source, chain 1 of 2): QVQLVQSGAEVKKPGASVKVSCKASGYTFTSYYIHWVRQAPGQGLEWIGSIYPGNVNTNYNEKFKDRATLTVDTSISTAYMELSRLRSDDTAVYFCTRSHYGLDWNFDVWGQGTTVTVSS
T1 sequence (VL, as listed by the source, chain 2 of 2): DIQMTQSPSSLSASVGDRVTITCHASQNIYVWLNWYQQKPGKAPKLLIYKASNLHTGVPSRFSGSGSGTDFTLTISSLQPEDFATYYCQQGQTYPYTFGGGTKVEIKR

Point of comparison: B4, “Anti-CD28 Fab signal in the presence of CD28” value 0.09. Against it:
- B1 — lower, 0.07
- B2 — lower, 0.07
- B3 — lower, 0.07
- B5 — lower, 0.07
- B6 — higher, 0.11
- B7 — lower, 0.06
- B8 — lower, 0.08
- B9 — lower, 0.07
- B10 — lower, 0.06

Molecular target: anti-CD28 Fab
Test: competition ELISA, peptide titrated 0-100 uM against 1 nM anti-CD28 Fab, plate-bound CD28 as competitor

Chain of anti-CD28 Fab (VH, as listed by the source, chain 1 of 2): as the sequence (VH, as listed by the source, chain 1 of 2) above
Chain of anti-CD28 Fab (VL, as listed by the source, chain 2 of 2): as the sequence (VL, as listed by the source, chain 2 of 2) above

Point of comparison: YCEGHSSEYIQKCL [Peptide-129], IC50 3180 nM. Against it:
- YCEGHLPEYIEKCL [Peptide-120] — 8.8-fold lower, 360 nM
- YCEGHAPEYIRKCL [Peptide-122] — within 1.5-fold, 2220 nM
- YCEGHAPEYIWKCL [Peptide-123] — 2.4-fold lower, 1320 nM
- YCEGHLPEYIWKCL [Peptide-135] — 5-fold lower, 630 nM
- YCEGHAPEYIGKCL [Peptide-136] — within 1.5-fold, 4120 nM
- YCEGHAPEYIAKCL [Peptide-121] — 6.6-fold lower, 480 nM
- YCEGHSPEYILKCL [Peptide-117] — 2.1-fold lower, 1530 nM
- YCEGHRPEYILKCL [Peptide-118] — 4.2-fold higher, 13300 nM
- YCEGHLPEYLGKCL [Peptide-125] — 3.8-fold lower, 830 nM
- YCEGHLPEYLAKCL [Peptide-127] — 11-fold lower, 300 nM
- HCSGHHWLQVWKCF [Peptide-130] — higher, > 100000 nM
- YCWSHSPPFIKKCY [Peptide-131] — higher, > 100000 nM
- YCEGHSQENIWKCL [Peptide-124] — within 1.5-fold, 4070 nM
- YCEGHLPEYLEKCV [Peptide-133] — within 1.5-fold, 2900 nM
- YCEGHEGIYFWKCL [Peptide-119] — 24-fold higher, 77700 nM
- YCEGHSQEYLWKCL [Peptide-128] — 3-fold higher, 9660 nM

Molecular target: T1, Anti-CD28 Fab (SEQ ID NOs: 696, 697)
Test: phage binding ELISA; biotinylated anti-CD28 Fab on neutravidin plate, anti-M13 HRP detection
Method: as §1

Point of comparison: B3, “Anti-CD28 Fab (SEQ ID NOs: 696, 697) signal” value 0.64. Against it:
- B1 — higher, 1.77
- B2 — higher, 1.65
- B4 — higher, 1.51
- B5 — higher, 1.27
- B6 — higher, 2.51
- B7 — higher, 1.49
- B8 — higher, 2.3
- B9 — higher, 1.85
- B10 — higher, 0.91

Molecular target: T2, Anti-PSMA Fab (SEQ ID NOs: 19, 20)
T2 construct: also called 006 PSMA Fab
Test: phage ELISA; clonal phage supernatant on biotinylated PSMA Fab captured on neutravidin plates, anti-M13 HRP detection
Method: (§2) Clonal phage were harvested as crude supernatants and screened via standard ELISAs. […] Prior to the addition of clonal phage. wells were incubated with blocking buffer and PSMA antigen or blocking buffer alone. Without washing or aspirating, clonal phage supernatants were then added to the wells and incubated for a short time. Wells were then washed followed by detection of bound phage using a horse radish conjugated anti-M13 antibody.

Point of comparison: QCVWDRGTWWMACD [Phage-1759], “Phage binding ELISA, Anti-PSMA Fab (SEQ ID NOs: 19, 20) signal” value 0.414. Against it:
- LTRCVPDWMCYRAV [Phage-1748] — higher, 1.17
- MCFVTGWGVPDDCN [Phage-1758] — higher, 0.638
- SKLLCVPPWMCYHV [Phage-1744] — higher, 0.806
- QCTWNEKTWWMECE [Phage-1754] — higher, 1.35
- QCVWDLTNYWMNCD [Phage-1756] — higher, 1.3
- YCWVDADMWLIFRC [Phage-1749] — higher, 1.01
- PLCGTEEVWWECRL [Phage-1747] — higher, 1.78
- MEYCSFHRFTCVLW [Phage-1743] — higher, 1.93
- QLPCHYWGEWCPQA [Phage-1745] — higher, 1.39
- HCLWHESSGRVLCF [Phage-1742] — higher, 2.15
- DCHWNKATWWMDCE [Phage-1757] — higher, 1.18
- QCVWDNFNYWMDCD [Phage-1753] — higher, 0.772
- WCWVQDDRRHVVCG [Phage-1751] — higher, 1.19
- MCQWDELNYWMDCD [Phage-1752] — higher, 1.65
- MCQWDKINYWMDCD [Phage-1755] — higher, 1.81
- ILPCHWYTSDCPQH (also called Peptide-200) [Phage-1750] — higher, 1.63
- FWECYSSFCRFVEG [Phage-1746] — higher, 1.46

Molecular target: T2, Anti-PSMA Fab (SEQ ID NOs: 19, 20)
Test: phage ELISA; clonal phage on captured PSMA Fab pre-incubated with PSMA antigen as competitor, anti-M13 HRP detection
Method: as §2

Point of comparison: QCVWDNFNYWMDCD [Phage-1753], “Phage binding ELISA, Anti-PSMA Fab signal in the presence of PSMA” value 0.0667. Against it:
- LTRCVPDWMCYRAV [Phage-1748] — higher, 0.0708
- MCFVTGWGVPDDCN [Phage-1758] — higher, 0.0694
- QCVWDRGTWWMACD [Phage-1759] — lower, 0.052
- SKLLCVPPWMCYHV [Phage-1744] — higher, 0.0794
- QCTWNEKTWWMECE [Phage-1754] — lower, 0.0568
- QCVWDLTNYWMNCD [Phage-1756] — lower, 0.057
- YCWVDADMWLIFRC [Phage-1749] — higher, 0.275
- PLCGTEEVWWECRL [Phage-1747] — higher, 0.0826
- MEYCSFHRFTCVLW [Phage-1743] — higher, 0.116
- QLPCHYWGEWCPQA [Phage-1745] — lower, 0.0537
- HCLWHESSGRVLCF [Phage-1742] — higher, 0.0678
- DCHWNKATWWMDCE [Phage-1757] — higher, 0.0828
- WCWVQDDRRHVVCG [Phage-1751] — lower, 0.0549
- MCQWDELNYWMDCD [Phage-1752] — lower, 0.0565
- MCQWDKINYWMDCD [Phage-1755] — lower, 0.049
- ILPCHWYTSDCPQH (also called Peptide-200) [Phage-1750] — higher, 0.117
- FWECYSSFCRFVEG [Phage-1746] — higher, 0.139
